The labels stand for the following.
B1: OsFIB promoter MYB-motif probe (dsDNA)
DNA 1: GCGATAGAATGTGTCGTATCCCGAGCTAGTTTTGTTCGAACATACAGCC
DNA 2: GGCTGTATGTTCGAACAAAACTAGCTCGGGATACGACACATTCTATCGC
B2: TAR2 promoter mutant probe (dsDNA)
DNA 1: TTAAGTACATGATTAATTAACGTAATCCAATA
DNA 2: TATTGGATTACGTTAATTAATCATGTACTTAA
B3: TAR2 promoter MYB-element probe (dsDNA)
DNA 1: TTAAGTACATGAGTTAGGTTCGTAATCCAATA
DNA 2: TATTGGATTACGAACCTAACTCATGTACTTAA

From publication PMC6888739, “SiMYB3 in Foxtail Millet (Setaria italica) Confers Tolerance to Low-Nitrogen Stress by Regulating Root Growth in Transgenic Plants” come the findings set out here.

The target of the series is T1, SiMYB3 (Setaria italica, UniProt K3YEJ5 1-315).
T1 sequence: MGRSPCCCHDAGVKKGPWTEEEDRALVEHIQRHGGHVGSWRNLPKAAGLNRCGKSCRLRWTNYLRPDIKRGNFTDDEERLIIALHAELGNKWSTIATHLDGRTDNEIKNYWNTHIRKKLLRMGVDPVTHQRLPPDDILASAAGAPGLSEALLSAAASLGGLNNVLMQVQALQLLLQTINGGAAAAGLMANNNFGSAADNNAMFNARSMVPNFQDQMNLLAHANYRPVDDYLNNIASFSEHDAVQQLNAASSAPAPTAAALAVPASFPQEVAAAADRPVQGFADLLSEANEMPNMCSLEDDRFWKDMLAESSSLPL
Kind of series: EMSA; EMSA 20 uL: 30 ng GST-SiMYB3, 400 fmol biotin probe, 10 mM Tris pH 7.5, 50 mM KCl, 1 mM DTT, 2.5% glycerol, 5 mM MgCl2, 50 ng/uL poly(dI-dC), 0.05% NP-40; temperature not stated. The following applies: protein: recombinant; label: biotin. (A gel shift assay detects complexes by their altered migration in electrophoresis.)
B1: the binding result is listed as “binds”.

In the case of B2, the binding result is on record as “no binding”.

Regarding B3, the binding result is on record as “binds”.
